Test results published in US20030190311A1.

Tests used:
[1] = target: murine FcRn (murine); test: BIAcore SPR, equilibrium/Scatchard, soluble FcRn over immobilized IgG1, pH 6.0, 25 C
[2] = target: human FcRn (human); test: as above

Kd [1]: 0.269 µM
Kd [2]: 2.53 µM
Substance: wild type human IgG1 MEDI-493 (SYNAGIS) (antibody)
